According to patent US7083511B1, “Methods” (The University of Dundee, priority 1998, dated 2006):

Key:
SGK [1] = experiment: Activation of GST-SGK in transfected 293 cells (Example 1); type: cell-based, human; conditions: PMA 400 ng/ml 30 min, EGF 100 ng/ml 30 min
SGK [2] = molecular target: T1, SGK (Homo sapiens, UniProt O00141, S422D); experiment: Activity of SGK towards synthetic peptides related to Crosstide; type: biochemical; conditions: GST-ΔN-SGK from 293 cells activated by PDK1; each peptide 30 μM
T1 construct: made in house; host or cells: human embryonic kidney 293 cells (pEBG-2T vector)
T1 sequence (O00141 61-431 S422D): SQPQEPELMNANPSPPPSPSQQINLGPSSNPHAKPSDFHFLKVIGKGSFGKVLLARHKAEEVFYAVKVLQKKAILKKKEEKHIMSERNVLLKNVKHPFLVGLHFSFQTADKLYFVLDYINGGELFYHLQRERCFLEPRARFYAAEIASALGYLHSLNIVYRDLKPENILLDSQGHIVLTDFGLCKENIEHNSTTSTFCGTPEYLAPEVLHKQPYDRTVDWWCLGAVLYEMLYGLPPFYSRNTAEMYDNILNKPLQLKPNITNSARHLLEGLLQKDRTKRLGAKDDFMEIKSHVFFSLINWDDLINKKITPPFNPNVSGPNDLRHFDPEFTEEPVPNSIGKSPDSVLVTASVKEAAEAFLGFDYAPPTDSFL
Protocol: Phosphorylation and assay of SGK. Phosphorylation was carried out at 30° C. in 50 μl incubations containing 50 mM Tris/HCl pH 7.5, 0.1 mM EGTA, 0.1% (v/v) 2-mercaptoethanol, 2.5 μM PKI, 1 μM microcystin-LR, 10 mM magnesium chloride and 100 μM ATP. Where indicated lipid vesicles containing phosphatidylcholine (100 μM), phosphatidyl serine (100 μM) and PtdIns(3,4,5)P3 (1 μM) were also included. SGK activity was assayed exactly as described for PKB [6] using the peptide […] (SEQ. ID. NO:30) (“Crosstide”) at 30 μM as substrate. One unit of activity (U) was that amount which catalysed the phosphorylation of […] of Crosstide in one min.

PKBα = molecular target: T2, PKBα (Homo sapiens, UniProt P31749); experiment: Activity of PKBα towards synthetic peptides related to Crosstide; type: biochemical; conditions: GST-PKBα from 293 cells activated by PDK1; each peptide 30 μM
T2 construct: pEBG-PKBa expressing full length PKBα; made in house; host or cells: 293 cells (pEBG-PKBα)

SGK1 = molecular target: T3, SGK1 (Homo sapiens, UniProt O00141, S422D); experiment: Activity of SGK1 toward synthetic peptides related to Crosstide; type: biochemical; conditions: each peptide 30 μM, average of two experiments
T3 construct: made in house; host or cells: human embryonic kidney 293 cells (pEBG-2T vector)
T3 sequence (O00141 61-431 S422D): T1 sequence (O00141 61-431 S422D)

SGK2 = molecular target: T4, SGK2 (Homo sapiens, UniProt Q9HBY8, S356D); experiment: Activity of SGK2 toward synthetic peptides related to Crosstide; type: biochemical; conditions: each peptide 30 μM, average of two experiments
T4 construct: pEBG-SGK2α expressing full length of SGK2α; made in house; host or cells: 293 cells (pEBG-2T-2 vector)
T4 sequence (Q9HBY8 1-367 S356D): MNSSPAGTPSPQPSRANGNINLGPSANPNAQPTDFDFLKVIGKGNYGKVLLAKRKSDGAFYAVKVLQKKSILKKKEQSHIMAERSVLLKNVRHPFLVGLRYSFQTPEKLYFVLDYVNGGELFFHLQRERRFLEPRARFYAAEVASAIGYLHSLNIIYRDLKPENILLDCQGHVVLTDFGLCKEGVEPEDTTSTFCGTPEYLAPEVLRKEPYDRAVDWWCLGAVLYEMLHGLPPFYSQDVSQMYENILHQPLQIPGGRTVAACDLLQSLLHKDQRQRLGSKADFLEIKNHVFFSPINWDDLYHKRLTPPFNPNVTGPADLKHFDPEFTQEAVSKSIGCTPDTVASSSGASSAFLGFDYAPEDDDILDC
Protocol: Each GST-SGK isoform (0.4 μg) was incubated for 20 min at 30° C. with protein phosphatase 2A (PP2A, 30 mU/ml) in a 10 μl incubation containing 20 mM Tris/HCl, pH 7.5, 0.1% (v/v) 2-mercaptoethanol, 0.1 mM EGTA and 1 mg/ml bovine serum albumin. After addition of microcystin-LR to 1 μM to inactivate PP2A, SGK (0.4 μg) was phosphorylated for 30 min at 30° C. in a mixture (20 μl) containing 50 mM Tris/HCl, pH 7.5, 10 mM MgCl2, 0.1% (v/v) 2-mercaptoethanol, 0.1 mM EGTA, GST-PDK1 (0.03–300 ng) diluted in Buffer C and 100 μM unlabelled ATP. […] ID. NO:30) and 4.2 μM of residues 5–24 of the specific protein inhibitor of adenosine 3′5′ cyclic monophosphate-dependent protein kinase. After 10 min at 30° C., the reactions were terminated by spotting aliquots on to P81 phosphocellulose paper, followed by immediate immersion in 75 mM phosphoric acid. The papers were washed, dried and analysed. One unit (U) of SGK was that amount which phosphorylated 1 nmole of Crosstide in one min.

SGK3 = molecular target: T5, SGK3 (Homo sapiens, UniProt Q96BR1, S486D); experiment: Activity of SGK3 toward synthetic peptides related to Crosstide; type: biochemical; conditions: each peptide 30 μM, average of two experiments
T5 construct: SGK3 lacking the N-terminal 52 residues (ΔN-SGK3[53–429]); made in house; host or cells: 293 cells (pEBG-2T-2 vector)
T5 sequence (Q96BR1 120-496 S486D): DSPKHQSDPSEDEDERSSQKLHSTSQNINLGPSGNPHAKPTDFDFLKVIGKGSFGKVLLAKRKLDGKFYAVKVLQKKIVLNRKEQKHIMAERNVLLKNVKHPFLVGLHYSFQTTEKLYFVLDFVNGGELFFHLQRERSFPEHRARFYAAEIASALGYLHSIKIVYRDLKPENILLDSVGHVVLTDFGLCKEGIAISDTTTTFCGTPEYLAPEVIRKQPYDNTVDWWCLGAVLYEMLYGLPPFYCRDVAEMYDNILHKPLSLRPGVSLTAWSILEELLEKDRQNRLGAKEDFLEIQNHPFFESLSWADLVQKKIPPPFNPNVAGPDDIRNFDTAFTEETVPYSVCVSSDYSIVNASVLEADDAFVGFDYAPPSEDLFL

[3] = GST-ΔN-SGK1[S422D] from 293 cells
[4] = GST-SGK2α[S356D] from 293 cells
[5] = GST-ΔN-SGK3[S419D] from 293 cells

T2 sequence (P31749 whole entry, species assumed): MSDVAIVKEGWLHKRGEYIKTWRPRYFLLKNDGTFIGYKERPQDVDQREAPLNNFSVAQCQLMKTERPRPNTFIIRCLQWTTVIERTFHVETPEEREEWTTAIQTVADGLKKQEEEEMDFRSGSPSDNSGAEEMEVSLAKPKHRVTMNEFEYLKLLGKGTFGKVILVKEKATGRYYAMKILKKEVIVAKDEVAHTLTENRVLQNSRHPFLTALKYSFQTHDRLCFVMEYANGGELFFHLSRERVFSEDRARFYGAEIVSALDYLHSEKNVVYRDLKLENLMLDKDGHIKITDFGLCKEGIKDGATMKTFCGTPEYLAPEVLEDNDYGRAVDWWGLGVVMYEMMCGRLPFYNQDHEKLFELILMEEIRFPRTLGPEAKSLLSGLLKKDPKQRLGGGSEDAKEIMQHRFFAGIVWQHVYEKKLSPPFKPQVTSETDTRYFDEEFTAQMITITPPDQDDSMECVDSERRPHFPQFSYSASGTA

| Compound | Activation of SGK by the stimulus (in words) (SGK [1]) | SGK activity relative to peptide 1 (Crosstide) (SGK [2]) | PKBα activity relative to peptide 1 (Crosstide) (PKBα) | SGK1 activity % relative to peptide 1 (Crosstide) (SGK1; [3]) | SGK2 activity % relative to peptide 1 (Crosstide) (SGK2; [4]) | SGK3 activity % relative to peptide 1 (Crosstide) (SGK3; [5]) | SGK1 activity % relative to peptide 1 (Crosstide) (SGK1; […]) | SGK2 activity % relative to peptide 1 (Crosstide) (SGK2; […]) | SGK3 activity % relative to peptide 1 (Crosstide) (SGK3; […]) |
| --- | --- | --- | --- | --- | --- | --- | --- | --- | --- |
| CCCCCCCCCCCCCC(=O)O[C@@H]1[C@@H](C)[C@@]2(O)[C@@H](C=C(CO)C[C@]3(O)C(=O)C(C)=C[C@@H]23)[C@@H]2C(C)(C)[C@]12OC(C)=O [Phorbol myristate acetate, reference compound] | did not induce any activation |  |  |  |  |  |  |  |  |
| EGF: activator of the classical MAP kinase cascade in 293 cells | did not induce any activation |  |  |  |  |  |  |  |  |
| GRPRTSSFAEG [Peptide 1, ID; NO: 30, reference compound] |  | 100% | 100% | 100% | 100% | 100% |  |  |  |
| KPRTSSF [Peptide 8, ID; NO: 37] |  | 2% | 6% | <1% | <1% | <1% |  |  |  |
| PRTSSF [Peptide 4, ID; NO: 33] |  | <1% | <1% | <1% | <1% | <1% |  |  |  |
| RPKTSSF [Peptide 9, ID; NO: 38] |  | 49% | 26% | 11% | 8% | 48% |  |  |  |
| RPRAATF [Peptide 7] |  | 73% | 55% |  |  |  | 44% | 61% | 56% |
| RPRTSAF [Peptide 3, ID; NO: 32] |  | <1% | <1% | <1% | <1% | <1% |  |  |  |
| RPRTSS [Peptide 5, ID; NO: 31] |  | 10% | <1% | 5.1% | 8% | 18% |  |  |  |
| RPRTSSA [Peptide 13, ID; NO: 42] |  | 107% | 26% | 49% | 82% | 123% |  |  |  |
| RPRTSSE [Peptide 15, ID; NO: 44] |  | 84% | 21% | 28% | 34% | 67% |  |  |  |
| RPRTSSF [Peptide 2, ID; NO: 39] |  | 154% | 160% | 135% | 182% | 137% |  |  |  |
| RPRTSSK [Peptide 14, ID; NO: 43] |  | 146% | 48% | 84% | 128% | 200% |  |  |  |
| RPRTSSL [Peptide 11, ID; NO: 40] |  | 135% | 69% | 108% | 185% | 113% |  |  |  |
| RPRTSSV [Peptide 12, ID; NO: 41] |  | 131% | 67% | 90% | 124% | 139% |  |  |  |
| RPRTSTF [Peptide 6, ID; NO: 35] |  | 156% | 208% | 129% | 192% | 156% |  |  |  |
